Assays:
[1] = target: T1, HMPV M2-1 (Human metapneumovirus strain NL1-00 (A1), UniProt Q8QN58 1-187); experiment: SAXS titration; Zn2+ (zinc finger intact); 150 mM NaCl, 500 mM NDSB-201; Rg increase, aggregation; SAXS: 20 mM Tris pH 7.5, 150 mM NaCl, 500 mM NDSB-201, +/- 5 mM EDTA, ~0.2 mg/ml protein; TSA: 50 mM HEPES pH 7.5, 150 mM NaCl, 20-99 C; crystals: 28% PEG MME 2000, 0.1 M bis-Tris pH 6.5, 20 C; conditions: protein: recombinant; tags: N-terminal His6-3C, optionally removed by 3C protease; chain copies: 4
[2] = target: T1, HMPV M2-1; experiment: SAXS titration; Zn2+ (zinc finger intact); 150 mM NaCl, 500 mM NDSB-201; closed conformation induced, Rg up to ~8 nm, aggregation; SAXS: 20 mM Tris pH 7.5, 150 mM NaCl, 500 mM NDSB-201, +/- 5 mM EDTA, ~0.2 mg/ml protein; TSA: 50 mM HEPES pH 7.5, 150 mM NaCl, 20-99 C; crystals: 28% PEG MME 2000, 0.1 M bis-Tris pH 6.5, 20 C; conditions: protein: recombinant; tags: N-terminal His6-3C, optionally removed by 3C protease; chain copies: 4

| Binder | binding result [1] | binding result [2] |
| --- | --- | --- |
| ACGCGAAAAAAU (ssRNA) [leader RNA 1-12 (positive sense)] | binds | – |
| AGUUAAUUAAAAA (ssRNA) [F gene end RNA (positive sense)] | – | binds |
